Starred links: 1 amine or outer side, 2 acyl side, 3 side chain; linkers in the order of their positions; H or OH if unused. Non-standard residues stand in square brackets, D forms with d. Groups on a side chain read outwards from the residue. No end group written: not given here. *: point of attachment. C20 diacid = O=C(O)CCCCCCCCCCCCCCCCCCC(=O)*; C18 diacid = O=C(O)CCCCCCCCCCCCCCCCC(=O)*; γGlu = O=C(O)[C@H](CCC(=O)[*:2])N[*:1]; εLys = N[C@@H](CCCCN[*:1])C(=O)[*:2]; Aib = CC(C)(N)C(=O)O
T1: human GIP receptor (human, UniProt P48546 22-466)
T1 sequence (looked up): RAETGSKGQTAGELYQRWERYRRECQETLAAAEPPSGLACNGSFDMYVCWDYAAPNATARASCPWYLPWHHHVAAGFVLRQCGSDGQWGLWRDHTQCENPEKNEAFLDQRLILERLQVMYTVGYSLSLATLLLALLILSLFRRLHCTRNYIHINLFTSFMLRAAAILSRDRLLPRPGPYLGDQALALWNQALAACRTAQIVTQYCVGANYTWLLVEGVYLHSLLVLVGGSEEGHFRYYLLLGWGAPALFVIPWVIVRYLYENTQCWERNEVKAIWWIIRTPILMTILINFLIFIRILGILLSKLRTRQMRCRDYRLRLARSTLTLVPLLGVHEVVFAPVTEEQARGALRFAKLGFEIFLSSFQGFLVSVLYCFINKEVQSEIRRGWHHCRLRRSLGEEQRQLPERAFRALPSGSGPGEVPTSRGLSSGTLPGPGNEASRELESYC

T2: human neuropeptide Y2 (NPY2) receptor (human, UniProt P49146 1-381)
T2 sequence (looked up): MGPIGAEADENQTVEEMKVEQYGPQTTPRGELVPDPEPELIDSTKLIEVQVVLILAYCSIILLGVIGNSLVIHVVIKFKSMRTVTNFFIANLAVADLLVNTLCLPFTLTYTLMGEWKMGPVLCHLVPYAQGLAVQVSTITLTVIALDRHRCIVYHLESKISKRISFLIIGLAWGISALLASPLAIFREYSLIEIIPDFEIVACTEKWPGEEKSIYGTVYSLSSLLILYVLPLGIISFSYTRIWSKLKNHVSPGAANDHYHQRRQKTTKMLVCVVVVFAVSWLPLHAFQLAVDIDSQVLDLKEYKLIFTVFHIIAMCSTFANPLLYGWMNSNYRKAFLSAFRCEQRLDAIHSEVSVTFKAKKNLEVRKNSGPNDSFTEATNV


How the values were obtained:
Experiment in all cases: cell-based or functional assay
human GLP-1 receptor = human GLP-1 receptor (human, UniProt P43220 24-463)
human GIP receptor = target: T1, human GIP receptor
[1] = target: T2, human neuropeptide Y2 (NPY2) receptor

Binder | EC50, CreLuc assay, 0.5% hP (human GLP-1 receptor) [nM] | EC50, CreLuc assay, 100% hP (human GLP-1 receptor) [nM] | EC50, CreLuc assay, 0.5% hP (human GIP receptor) [nM] | EC50, CreLuc assay, 100% hP (human GIP receptor) [nM] | EC50, CreLuc assay, 0.5% hP [1] [nM] | EC50, CreLuc assay, 100% hP [1] [nM]
Y[Aib]EGTFTSDYSI[Aib]LEKQAQ[Aib]AFVQWLIK([εLys-γGlu-γGlu-γGlu-γGlu-γGlu-C18 diacid])GGPESGASLRHYYNWLTRQRY-NH2 (also: TFA salt) [Compound 60] | 0.08 | 1.69 | 0.33 | 0.35 | 7.43 | 23.1
Y[Aib]EGTFTSDYSI[Aib]LEKQAQ[Aib]AFVQWLIK([εLys-γGlu-γGlu-γGlu-γGlu-γGlu-C20 diacid])GGPESGASLRHYYNWLTRQRY-NH2 (also: TFA salt) [Compound 61] | 0.11 | 3.95 | 0.36 | 0.56 | 6.25 | 37.6
YXEGTFTSDYSIXLEKQAQXAFVEWLIKGGPRYYASLRHYYNWLTRQRY (Aib at 2, 13, 20; K28 side chain: C20DA-gGlu-gGlu-gGlu-gGlu-gGlu-gGlu-eLys; C-terminal NH2) [Compound 62] | 0.78 | 9.23 | 0.48 | 5.35 | 13.6 | 40.5
Y[Aib]EGTFTSDYSI[Aib]LEKQAQ[Aib]AFVQWLIK([εLys-Glu-Glu-Glu-Glu-Glu-C18 diacid])GGPESGASLRHYYNWLTRQRY-NH2 (also: TFA salt) [Compound 63] | 0.08 | 3 | 0.13 | 0.89 | 15.2 | 74.3
Y[Aib]EGTFTSDYSI[Aib]LEKQAQ[Aib]AFVEWLIKGGPESPASLRHYYNWLTRQRY-NH2 (not fully specified (residue 28); also: TFA salt) [Compound 64] | 0.29 | 11.2 | 0.18 | 2.37 | 17 | 95.3
Y[Aib]EGTFTSDYSI[Aib]LEKQAQ[Aib]AFVEWLIK([γGlu-γGlu-γGlu-γGlu-γGlu-γGlu-C20 diacid])GGGSEYVSLRHYYNWLTRQRY-NH2 (also: TFA salt) [Compound 65] | 2.65 | 49.3 | 1.03 | 15.7 | 10.9 | 24.2
YXEGTFTSDYSIXLEEEAQXAFVEWLIKGGPSSGASLRHYYNWLTRQRY (Aib at 2, 13, 20; K28 side chain: C20DA-gGlu-gGlu-gGlu-gGlu-gGlu-gGlu-eLys; C-terminal NH2) [Compound 66] | 0.24 | 11.6 | 0.64 | 3.06 | 18.8 | 85.6
Y[Aib]EGTFTSDYSI[Aib]LEKQAQ[Aib]AFVQWLIK([εLys-γGlu-γGlu-γGlu-γGlu-γGlu-C20 diacid])GGPEEPASLRHYYNWLTRQRY-NH2 (also: TFA salt) [Compound 67] | 0.38 | 27.4 | 0.29 | 6.18 | 13.7 | 78.9
YXEGTFTSDYSIXLEKQAQXAFVEWLIKGGPSSGIELRHFLNHLTRQRY (Aib at 2, 13, 20; K28 side chain: C20DA-gGlu-gGlu-gGlu-gGlu-gGlu-gGlu-eLys; C-terminal NH2) [Compound 2] | 0.1 | 1.39 | 0.35 | 1.56 | > 100 | 564
YXEGTFTSDYSIXLEEQAQXAFVQWLIKGGPSSGQSLRHYYNWLTRQRY (Aib at 2, 13, 20; K28 side chain: C20DA-gGlu-Glu-gGlu-gGlu-gGlu-gGlu-eLys; C-terminal NH2) [Compound 8] | 0.04 | 1.05 | 0.12 | 1.72 | 11.6 | 43
YXEGTFTSDYSIXLEKQAQXAFVEWLIKGGPSSGASLRHYYNRXTRQRY (Aib at 2, 13, 20, 44; K28 side chain: C20DA-gGlu-gGlu-gGlu-gGlu-gGlu-gGlu-eLys; C-terminal NH2) [Compound 68] | 0.12 | 2.19 | 0.32 | 2.05 | 53.9 | 139
YXEGTFTSDYSIXLEKEKQXAFVEWLIKGGPSSGASLRHYYNWLTRQRY (Aib at 2, 13, 20; K28 side chain: C20DA-gGlu-gGlu-gGlu-gGlu-gGlu-gGlu-eLys; C-terminal NH2) [Compound 69] | 1.48 | 27.8 | 0.8 | 2.95 | 8.41 | 26.6
Y[Aib]EGTFTSDYSI[Aib]LEKQAQ[Aib]AFVEWLIK([εLys-γGlu-γGlu-γGlu-γGlu-γGlu-C20 diacid])GGPESPASLRHYYNWLTRQRY-NH2 (also: TFA salt) [Compound 70] | 0.3 | 22.2 | 0.28 | 2.62 | 16.2 | 67.2
YXEGTFTSDYSIXLEKQAQXAFVEWLIKGGPSSGASLRHYYNWLTXQRY (Aib at 2, 13, 20; hArg 46; DTyr 49; K28 side chain: C20DA-gGlu-gGlu-gGlu-gGlu-gGlu-gGlu-eLys; C-terminal NH2) [Compound 71] | 0.14 | 1.13 | 0.13 | 0.64 | > 100 | > 1000
YXEGTFTSDYSIXLEKQAQXAFVEWLIKGGPSSGADLRHYLNWLTRQRY (Aib at 2, 13, 20; K28 side chain: C20DA-gGlu-gGlu-gGlu-gGlu-gGlu-gGlu-eLys; C-terminal NH2) [Compound 72] | 0.15 | 2.87 | 0.29 | 2.12 | 29.1 | 149
YXEGTFTSDYSIXLEKQAQXAFVEWLIKGGPSSPESLRHYYNWLTRQRY (Aib at 2, 13, 20; K28 side chain: C20DA-gGlu-gGlu-gGlu-gGlu-gGlu-gGlu-eLys; C-terminal NH2) [Compound 73] | 0.19 | 4.76 | 0.11 | 1.61 | 32.2 | 107
YXEGTFTSDYSIXLEKQAQXAFVEWLIKGGPSSGASXRHYYNWLTRQRY (Aib at 2, 13, 20, 37; DTyr 49; K28 side chain: C20DA-gGlu-gGlu-gGlu-gGlu-gGlu-gGlu-eLys; C-terminal NH2) [Compound 74] | 0.08 | 1.13 | 0.1 | 0.62 | 53.4 | 110

From patent publication US20240247080A1, “GLP1/GIP/NPY2 RECEPTOR TRIPLE AGONISTS” (Boehringer Ingelheim International GmbH, priority 2022, published 2024)
